One protein from PMC2774669 (Microbial Cell Factories, 2009) can be followed below.

The data set deals with the molecule itself. The data set can be described thus: aggregation kinetics by turbidity.

B1: HET-s prion forming domain (PFD), HET-s(218-289) (domain or fragment, Podospora anserina, UniProt Q03689 218-289, looked up)
chain: KIDAIVGRNSAKDIRTEERARVQLGNVVTAAALHGGIRISDQTTNSVETVVGKGESRVLIGNEYGGKGFWDN
notes: also called HET-s PFD
Regarding B1, the binding result is reported as “binds”.
